Molecular target: α-casein

Substance	Units/ml (putrescine assay) [Units/ml]
transglutaminase preparation (culture broth) of Nodulisporium sp. (pool or library)	1.2
transglutaminase preparation (culture broth) of Beauveria calendonica (pool or library)	0.25
transglutaminase preparation (culture broth) of Tricholoma myomyces (pool or library)	0.23
transglutaminase preparation (culture broth) of Antrodia serialis (pool or library)	0.8
transglutaminase preparation (culture broth) of Pleurotus dryinus (pool or library)	0.22
transglutaminase preparation (culture broth) of Cercospora traversiana (pool or library)	0.53
transglutaminase preparation (culture broth) of Hortea werneckii (pool or library)	0.95
transglutaminase preparation (culture broth) of Byssochlamys fulva (pool or library)	0.24
transglutaminase preparation (culture broth) of Trametes hirsuta (pool or library)	0.21
transglutaminase preparation (culture broth) of Cladosporium sphaeospermum (pool or library)	1.07
transglutaminase preparation (culture broth) of Cercospora sesami (pool or library)	0.24
transglutaminase preparation (culture broth) of Aspergillus giganteus (pool or library)	0.19
transglutaminase preparation (culture broth) of Aspergillus tamarii (pool or library)	0.16
transglutaminase preparation (culture broth) of Coprinus cinereus (pool or library)	0.14
transglutaminase preparation (culture broth) of Coniothyrium cerealis (pool or library)	0.13
transglutaminase preparation (culture broth) of Amylostereum chailletii (pool or library)	0.44
transglutaminase preparation (culture broth) of Nidula sp. (pool or library)	0.14
transglutaminase preparation (culture broth) of Humicola alopallonella (pool or library)	0.76
transglutaminase preparation (culture broth) of Sporormiella minima (pool or library)	0.2
transglutaminase preparation (culture broth) of Mucor luteus (pool or library)	0.34
transglutaminase preparation (culture broth) of Beauveria cylindrospora (pool or library)	0.24

Substance	Units/ml (putrescine assay) [Units/ml]
transglutaminase preparation (culture broth) of Psathyrella condolleana (pool or library)	0.19
transglutaminase preparation (culture broth) of Fusarium merismoides (pool or library)	0.16
transglutaminase preparation (culture broth) of Valsa pini (pool or library)	0.73
transglutaminase preparation (culture broth) of Aspergillus foetidus (pool or library)	0.23
transglutaminase preparation (culture broth) of Lulworthia uniseptata (pool or library)	0.36
transglutaminase preparation (culture broth) of Fusarium redolens (pool or library)	0.16
transglutaminase preparation (culture broth) of Dendryphiella salina (pool or library)	0.96
transglutaminase preparation (culture broth) of Rhizoctonia solani (pool or library)	0.17
transglutaminase preparation (culture broth) of Agaricus sp. (pool or library)	0.15
transglutaminase preparation (culture broth) of Fusarium flocciferum (pool or library)	0.15
transglutaminase preparation (culture broth) of Savoryella lignicola (pool or library)	6.24
transglutaminase preparation (culture broth) of Dimorphosporum disporatrichum (pool or library)	0.42
transglutaminase preparation (culture broth) of Pleurotus sp. (pool or library)	2.36
transglutaminase preparation (culture broth) of Panaeolus papilionaceus (pool or library)	0.15
transglutaminase preparation (culture broth) of Coprinus sp. (pool or library)	0.44
transglutaminase preparation (culture broth) of Pycnoporus cinnabarinus (pool or library)	0.14
transglutaminase preparation (culture broth) of Hymenochaete corticola (pool or library)	1.31
transglutaminase preparation (culture broth) of Amanita virosa (pool or library)	0.14
transglutaminase preparation (culture broth) of Alternaria alternata (pool or library)	0.16
transglutaminase preparation (culture broth) of Xylaria sp (pool or library)	0.28
transglutaminase preparation (culture broth) of Podospora tetraspora (pool or library)	0.3

Substance	Units/ml (putrescine assay) [Units/ml]
transglutaminase preparation (culture broth) of Myrothecium roridum (pool or library)	0.13
transglutaminase preparation (culture broth) of Chamaemyces fracidus (pool or library)	0.2
transglutaminase preparation (culture broth) of Talaromyces helicus (pool or library)	0.23
transglutaminase preparation (culture broth) of Pholiota jahnii (pool or library)	0.21
transglutaminase preparation (culture broth) of Ascotricha erinacea (pool or library)	0.15
transglutaminase preparation (culture broth) of Scytinostroma portentosum (pool or library)	0.14
transglutaminase preparation (culture broth) of Sporormiella australis (pool or library)	0.13
transglutaminase preparation (culture broth) of Auricularia polytricha (pool or library)	0.18
transglutaminase preparation (culture broth) of Hypholoma fasciculare (pool or library)	0.14
transglutaminase preparation (culture broth) of Fusarium decemcellulare (pool or library)	0.1
transglutaminase preparation (culture broth) of Aspergillus heteromorphus (pool or library)	0.12
transglutaminase preparation (culture broth) of Cercospora carisis (pool or library)	13
transglutaminase preparation (culture broth) of Kuhneromyces variabilis (pool or library)	0.14
transglutaminase preparation (culture broth) of Warcupiella spinulosa (pool or library)	0.41
transglutaminase preparation (culture broth) of Trichoderma harzianum (pool or library)	0.25
transglutaminase preparation (culture broth) of Tricholoma flavovirens (pool or library)	0.16
transglutaminase preparation (culture broth) of Chaetomium funicolum (pool or library)	0.16
transglutaminase preparation (culture broth) of Cercospora beticola (pool or library)	1.58
transglutaminase preparation (culture broth) of Fusarium armeniacum (pool or library)	0.19
transglutaminase preparation (culture broth) of Cochliobolus sativus (pool or library)	0.09
transglutaminase preparation (culture broth) of Cladosporium cladosporiodes (pool or library)	0.22

From patent publication US6100053A, “Microbial transglutaminases, their production and use” (priority 1994, dated 2000)
